Source: paper PMC10524804

Test system: CpxR-R195H (Klebsiella pneumoniae HS11286 (ST11)?)
Assay: ITC
Conditions: EMSA: Beyotime binding buffer (poly(dI-dC), DTT, glycerol, EDTA, NaCl, MgCl2, Tris), room temp, 2 pmol probe; footprinting: 50 mM Tris-HCl pH 8.0, 100 mM KCl …

With PblaKPC (Tn1721, ST11), unlabeled the binding signal (fold lower affinity than wild type) was 100.
